The record followed here is article PMC3947372 (Journal of molecular biology, 2013).

By stoichiometry N is commonly meant a count of units in the complex or per binding partner.

The data set concerns the molecule itself. The data set can be described thus: crystal structure.

B1: NaVAe1p, pore-only sodium channel protein derived from the Alkalilimnicola ehrlichei BacNaV NaVAe1 (domain or fragment)
chain: LLRAIPGIAWIALLLLVIFYVFAVMGTKLFAQSFPEWFGTLGASMYTLFQVMTLESWSMGIARPVIEAYPWAWIYFVSFILVSSFTVLNLFIGIIIESMQSAHWEAEDAKRIEQEQRAHDERLEMLQLIRDLSSKVDRLERRSGKR
For B1, the “stoichiometry N” value was found to be 4.
